Here are results for two molecules from EP4703474A1, “ANTI-LRRC15 ANTIBODY” (priority 2023, dated 2024).

Experiment [1] deals with Mouse colorectal carcinoma cell line CMT93. Briefly: In vivo antitumor effect, CMT93 subcutaneous transplant model. The following applies: 0.4 mg/kg, tail vein, on Day 7, male B6J mice. As to the method:
(§1) The antitumor effects of the antibody-drug conjugates were evaluated by using animal models in which cells of a human tumor cell line had been transplanted into immunodeficient mice, or cells of a mouse tumor cell line had been transplanted into immunocompetent mice. 4 to 6 Week-old SCID mice (CB17/Icr-Prkdc[scid]/CrlCrlj, Jackson Laboratory Japan, Inc.), NSG mice (NOD.Cg-Prkdcscid Il2rgtm1Wjl/SzJ, Jackson Laboratory Japan, Inc.), or B6J mice (C57BL/6J, Jackson Laboratory Japan, Inc.) were habituated for 3 days or more under SPF conditions before experimental use. The mice were fed with sterilized solid feed and given sterilized tap water. The major and minor diameters of the transplanted tumors were measured twice a week with an electronic digital caliper (Mitutoyo Corporation), and the estimated tumor volume was calculated using the following formula. Estimated tumor volume (mm^3) = 1/2 × major diameter (mm) × [minor diameter (mm)]^2 All antibody-drug conjugates were diluted with ABS and administered into the tail vein at doses shown in each Example. In addition, ABS (vehicle) or control hIgG-PBD prepared in Reference Example 4 was administered as the control group, in a similar manner. 5 to 6 Mice were used per group in the experiment. To analyze the LRRC15 expression in mouse tumor models, immunohistochemical staining of LRRC15 was performed. […]

The test system of experiment [2] is LRRC15-negative human lung carcinoma cell line HCC827. Description: In vivo antitumor effect, HCC827 subcutaneous transplant model. To be noted: 0.4 mg/kg, tail vein, on Day 10, female SCID mice, huM25-MMAE at 0.4 mg/kg or 3.6 mg/kg. As to the method:
The antitumor effects of the antibody-drug conjugates were evaluated by using animal models in which cells of the human tumor cell line had been transplanted into immunodeficient mice. 4 to 6 Week-old SCID mice (CB17/Icr-Prkdc[scid]/CrlCrlj, Jackson Laboratory Japan, Inc.) were habituated for 3 days or more under SPF conditions before experimental use. The mice were fed with sterilized solid feed (FR-2, Funabashi Farms Co., Ltd.) and given sterilized tap water (prepared by adding a solution of 5 to 15 ppm sodium hypochlorite). The major and minor diameters of the transplanted tumors were measured twice a week with an electronic digital caliper ([…] Corporation), and the estimated tumor volume was calculated using the following formula. Estimated tumor volume (mm^3) = 1/2 × major diameter (mm) × [minor diameter (mm)]^2 All antibody-drug conjugates were diluted with ABS and administered into the tail vein at doses shown in each Example. In addition, ABS (vehicle) or control hIgG-PBD prepared in Reference Example 4 was administered as the control group, in a similar manner. 5 to 6 Mice were used per group in the experiment. […]

The test system of experiment [3] is LRRC15-positive human glioblastoma cell line U118MG. Briefly: In vivo antitumor effect, U118MG subcutaneous transplant model. To be noted: 0.4 mg/kg, tail vein, on Day 17, female SCID mice. As to the method: as §1, with “experiment.” for “experiment. To analyze the LRRC15 expression in mouse tumor models, immunohistochemical staining of LRRC15 was performed.”

Where a chain is given by its changes, count along the chain named.

B1: H02L01-PBD (conjugate)
heavy: EVQLVESGGGLVQPGGSLRLSCAASGFTFRDYYMAWVRQAPGKGLEWVSSIGFDESRTYYADSVKGRFTISRDDSKNTLYLQMNSLRAEDTAVYYCARHGVSYYSGDNWFAYWGQGTLVTVSSASTKGPSVFPLAPSSKSTSGGTAALGCLVKDYFPEPVTVSWNSGALTSGVHTFPAVLQSSGLYSLSSVVTVPSSSLGTQTYICNVNHKPSNTKVDKKVEPKSCDKTHTCPPCPAPEAAGGPSVFLFPPKPKDTLMISRTPEVTCVVVDVSHEDPEVKFNWYVDGVEVHNAKTKPREEQYNSTYRVVSVLTVLHQDWLNGKEYKCKVSNKALAAPIEKTISKAKGQPREPQVYTLPPSREEMTKNQVSLTCLVKGFYPSDIAVEWESNGQPENNYKTTPPVLDSDGSFFLYSKLTVDKSRWQQGNVFSCSVMHEALHNHYTQKSLSLSPGK
light: DIQMTQSPSSLSASVGDRVTITCKSSQGLLYSGDQKNYLAWYQQKPGKAPKLLIYWASTRQSGVPSRFSGSGSGTDFTLTISSLQPEDFATYYCQQYYDPPYTFGQGTKVEIKRTVAAPSVFIFPPSDEQLKSGTASVVCLLNNFYPREAKVQWKVDNALQSGNSQESVTEQDSKDSTYSLSSTLTLSKADYEKHKVYACEVTHQGLSSPVTKSFNRGEC
Regarding B1, the “antitumor effect (estimated tumor volume)” value in experiment [1] is “antitumor activity higher than that of the vehicle and the control hIgG-PBD”; in experiment [2], “antitumor activity higher than that of the vehicle, the control hIgG-PBD, and huM25-MMAE”; in experiment [3] it was “antitumor activity higher than that of the vehicle and the control hIgG-PBD”.

B2: H02L01-V1-PBD (conjugate)
heavy: B1 heavy with Y103K
light: B1 light
On to B2, for which the “antitumor effect (estimated tumor volume)” value is “antitumor activity higher than that of the vehicle and the control hIgG-PBD” in experiment [1]; “antitumor activity higher than that of the vehicle, the control hIgG-PBD, and huM25-MMAE” in experiment [2]; “antitumor activity higher than that of the vehicle and the control hIgG-PBD” in experiment [3].
